Measured values: the Immune Epitope Database (IEDB)
One block for each sequence: values may come before it.

Columns and labels:
HLA-A*02:01 [1] = assay: IEDB peptide-MHC binding, purified MHC/competitive/radioactivity; filed as Kd, often an IC50 or EC50 that approximates it; ≥ and ≤ were set here for values at or beyond the usual limits of such assays
HLA-A*02:03 = assay: as above
HLA-A*02:06 = assay: as above
HLA-A*02:17 = assay: as above
HLA-B*08:02 = assay: IEDB peptide-MHC binding, purified MHC/direct/fluorescence; filed as Kd, often an IC50 or EC50 that approximates it; ≥ and ≤ were set here for values at or beyond the usual limits of such assays
HLA-A*03:01 [2] = assay: as above
HLA-A*11:01 [3] = assay: as above
HLA-A*31:01 [4] = assay: IEDB peptide-MHC binding, purified MHC/competitive/fluorescence; filed as Kd, often an IC50 or EC50 that approximates it; ≥ and ≤ were set here for values at or beyond the usual limits of such assays
HLA-A*26:01 [5] = assay: IEDB peptide-MHC binding, purified MHC/competitive/radioactivity; filed as Kd, often an IC50 or EC50 that approximates it; ≥ and ≤ were set here for values at or beyond the usual limits of such assays; conditions: source organism: Dengue virus 3 Martinique/1243/1999
HLA-A*01:01 = assay: IEDB peptide-MHC binding, purified MHC/direct/fluorescence; filed as Kd, often an IC50 or EC50 that approximates it; ≥ and ≤ were set here for values at or beyond the usual limits of such assays; conditions: source organism: Camelpox virus M-96
HLA-A*02:01 [6] = assay: as above
HLA-A*31:01 [7] = assay: as above; conditions: source organism: Camelpox virus M-96
HLA-B*15:17 = assay: as above; conditions: source organism: Camelpox virus M-96
HLA-B*27:05 = assay: as above; conditions: source organism: Camelpox virus M-96
HLA-B*40:01 = assay: as above; conditions: source organism: Camelpox virus M-96
HLA-B*46:01 = assay: as above
HLA-B*48:01 = assay: as above; conditions: source organism: Camelpox virus M-96
HLA-B*58:01 = assay: as above; conditions: source organism: Camelpox virus M-96
HLA-A*11:01 [8] = assay: IEDB peptide-MHC binding, purified MHC/competitive/fluorescence; filed as Kd, often an IC50 or EC50 that approximates it; ≥ and ≤ were set here for values at or beyond the usual limits of such assays
HLA-A*69:01 = assay: as above; conditions: source organism: Vaccinia virus Copenhagen
HLA-B*15:01 [9] = assay: as above; conditions: source organism: Vaccinia virus Copenhagen
HLA-B*57:01 [10] = assay: as above; conditions: source organism: Vaccinia virus Copenhagen
HLA-A*03:01 [11] = assay: IEDB peptide-MHC binding, purified MHC/competitive/fluorescence; ≥ and ≤ were set here for values at or beyond the usual limits of such assays; conditions: source organism: Zaire ebolavirus
HLA-A*11:01 [12] = assay: as above; conditions: source organism: Zaire ebolavirus
HLA-B*07:02 = assay: as above
HLA-A*03:01 [13] = assay: IEDB peptide-MHC binding, purified MHC/competitive/fluorescence; filed as Kd, often an IC50 or EC50 that approximates it; ≥ and ≤ were set here for values at or beyond the usual limits of such assays; conditions: source organism: Escherichia coli 536
HLA-B*08:01 = assay: IEDB peptide-MHC binding, purified MHC/competitive/radioactivity; filed as Kd, often an IC50 or EC50 that approximates it; ≥ and ≤ were set here for values at or beyond the usual limits of such assays
HLA-A*02:12 = assay: IEDB peptide-MHC binding, purified MHC/direct/fluorescence; filed as Kd, often an IC50 or EC50 that approximates it; ≥ and ≤ were set here for values at or beyond the usual limits of such assays; conditions: source organism: Brucella suis 1330
HLA-A*02:16 = assay: as above; conditions: source organism: Brucella suis 1330
HLA-A*02:19 = assay: as above; conditions: source organism: Brucella suis 1330
HLA-A*26:01 [14] = assay: as above; conditions: source organism: Brucella suis 1330
HLA-B*15:01 [15] = assay: as above; conditions: source organism: Brucella suis 1330
HLA-B*18:01 = assay: as above; conditions: source organism: Brucella suis 1330
HLA-B*51:01 = assay: as above; conditions: source organism: Brucella suis 1330
HLA-B*57:01 [16] = assay: as above; conditions: source organism: Brucella suis 1330
HLA-A*24:02 = assay: IEDB peptide-MHC binding, purified MHC/competitive/fluorescence; ≥ and ≤ were set here for values at or beyond the usual limits of such assays
HLA-B*15:01 [17] = assay: as above; conditions: source organism: Vaccinia virus Copenhagen
HLA-C*06:02 = assay: IEDB peptide-MHC binding, purified MHC/direct/fluorescence; filed as Kd, often an IC50 or EC50 that approximates it; ≥ and ≤ were set here for values at or beyond the usual limits of such assays; conditions: source organism: Burkholderia mallei ATCC 23344
HLA-A*02:01 [18] = assay: IEDB peptide-MHC binding, purified MHC/competitive/fluorescence; filed as Kd, often an IC50 or EC50 that approximates it; ≥ and ≤ were set here for values at or beyond the usual limits of such assays
HLA-A*02:01 [19] = assay: IEDB peptide-MHC binding, purified MHC/competitive/fluorescence; ≥ and ≤ were set here for values at or beyond the usual limits of such assays; conditions: source organism: Zaire ebolavirus
HLA-A*23:01 = assay: IEDB peptide-MHC binding, purified MHC/competitive/fluorescence; filed as Kd, often an IC50 or EC50 that approximates it; ≥ and ≤ were set here for values at or beyond the usual limits of such assays
HLA-B*15:01 [20] = assay: IEDB peptide-MHC binding, purified MHC/competitive/radioactivity; filed as Kd, often an IC50 or EC50 that approximates it; ≥ and ≤ were set here for values at or beyond the usual limits of such assays; conditions: source organism: Dengue virus 3 Martinique/1243/1999
[21] = source organism: Dengue virus 2 Jamaica/1409/1983
[22] = source organism: Camelpox virus M-96
[23] = source organism: Vaccinia virus Copenhagen
[24] = source organism: Zaire ebolavirus
[25] = source organism: Escherichia coli 536
[26] = source organism: Influenza A virus (A/Goose/Hong Kong/385.3/2000(H5N1))
[27] = source organism: Dengue virus 1 Singapore/S275/1990
[28] = source organism: Dengue virus 2 Thailand/NGS-C/1944
[29] = source organism: Dengue virus 2 16681-PDK53
[30] = source organism: Brucella suis 1330
[31] = source organism: Mycobacterium tuberculosis
[32] = source organism: Burkholderia mallei ATCC 23344
[33] = source organism: Dengue virus 4 Philippines/H241/1956
[34] = source organism: Giardia lamblia ATCC 50803
[35] = source organism: Dengue virus 3 Martinique/1243/1999

Sequence: AIYGAAFSGV
Kd (HLA-A*02:01 [1]; [21]): 1.05 nM | Kd (HLA-A*02:03; [21]): 8.6 nM | Kd (HLA-A*02:06; [21]): 4.57 nM | Kd (HLA-A*02:17; [21]): 627 nM

Sequence: DLKRKFYTL
Kd (HLA-B*08:02; source organism: Campylobacter jejuni subsp. jejuni 81116): 154 nM

Sequence: DVNGIRKPK
Kd (HLA-A*03:01 [2]; source organism: Amur virus): ≥ 20000 nM | Kd (HLA-A*11:01 [3]; source organism: Amur virus): ≥ 20000 nM | Kd (HLA-A*31:01 [4]; source organism: Orthohantavirus dobravaense): ≥ 20000 nM

Sequence: ELKGMSYAM
Kd (HLA-B*08:02; source organism: dengue virus type 3): ≥ 20000 nM | Kd (HLA-A*26:01 [5]): 1740 nM

Sequence: FTENGPWMY
Kd (HLA-A*01:01): 2.7 nM | Kd (HLA-A*02:01 [6]; [22]): ≥ 20000 nM | Kd (HLA-A*03:01 [2]; [22]): ≥ 20000 nM | Kd (HLA-A*31:01 [7]): ≥ 20000 nM | Kd (HLA-B*08:02; source organism: Variola virus): ≥ 20000 nM | Kd (HLA-B*15:17): 5.2 nM | Kd (HLA-B*27:05): ≥ 20000 nM | Kd (HLA-B*40:01): ≥ 20000 nM | Kd (HLA-B*46:01; [22]): ≥ 20000 nM | Kd (HLA-B*48:01): ≥ 20000 nM | Kd (HLA-B*58:01): ≥ 20000 nM | Kd (HLA-A*11:01 [8]; [23]): ≥ 20000 nM | Kd (HLA-A*69:01): ≥ 20000 nM | Kd (HLA-B*15:01 [9]): ≥ 20000 nM | Kd (HLA-B*57:01 [10]): ≥ 20000 nM

Sequence: GIRGFPRCR
IC50 (HLA-A*03:01 [11]): 1060 nM | IC50 (HLA-A*11:01 [12]): 42100 nM | IC50 (HLA-B*07:02; [24]): ≥ 451000 nM

Kd (HLA-A*03:01 [13]): 15 nM | Kd (HLA-A*31:01 [4]; [25]): 8.5 nM
Sequence: GMSSRAIAR

Sequence: GPAAEGIYI
IC50 (HLA-B*07:02; [24]): 60400 nM

Sequence: IIAARNIVR
Kd (HLA-A*03:01 [2]; [26]): 1540 nM | Kd (HLA-A*11:01 [3]; [26]): ≥ 20000 nM | Kd (HLA-A*31:01 [4]; source organism: Influenza A virus H3N2): 3.62 nM

Sequence: KTYFEKVERLK
Kd (HLA-A*11:01 [8]; source organism: Influenza A virus (A/swine/Scotland/410440/94(H1N2))): 28.7 nM

Sequence: LLFKTSVGV
Kd (HLA-A*02:01 [1]; [27]): 3.22 nM | Kd (HLA-A*02:03; [27]): 9.08 nM | Kd (HLA-A*02:17; [27]): 90.3 nM

Sequence: LPAAPDGIR
IC50 (HLA-B*07:02; [24]): 54700 nM

Sequence: LQMENKAWLV
Kd (HLA-A*02:01 [1]; [28]): 10.1 nM | Kd (HLA-A*02:06; [29]): 1.17 nM | Kd (HLA-A*02:17; [28]): 142 nM | Kd (HLA-B*08:01; [29]): 6750 nM

Sequence: MRIGSMATL
Kd (HLA-A*02:01 [6]; [30]): ≥ 20000 nM | Kd (HLA-A*02:12): ≥ 20000 nM | Kd (HLA-A*02:16): ≥ 20000 nM | Kd (HLA-A*02:19): ≥ 20000 nM | Kd (HLA-A*03:01 [2]; [30]): ≥ 20000 nM | Kd (HLA-A*26:01 [14]): ≥ 20000 nM | Kd (HLA-B*15:01 [15]): ≥ 20000 nM | Kd (HLA-B*18:01): ≥ 20000 nM | Kd (HLA-B*46:01; [30]): ≥ 20000 nM | Kd (HLA-B*51:01): ≥ 20000 nM | Kd (HLA-B*57:01 [16]): ≥ 20000 nM

Sequence: RIPNSLHSL
IC50 (HLA-A*24:02; [23]): 656 nM | IC50 (HLA-B*07:02; [23]): 37200 nM | IC50 (HLA-B*15:01 [17]): 22700 nM

Sequence: RLNFFTPTK
Kd (HLA-A*03:01 [2]; [31]): 5.9 nM | Kd (HLA-A*11:01 [3]; [31]): 3.1 nM | Kd (HLA-A*31:01 [4]; source organism: Mycobacterium tuberculosis variant bovis BCG str. Pasteur 1173P2): 2.3 nM

Sequence: RLRRRRHPL
Kd (HLA-B*08:02; [32]): 1190 nM | Kd (HLA-C*06:02): ≥ 20000 nM | Kd (HLA-A*02:01 [18]; [32]): ≥ 20000 nM

Sequence: RMVLAFITFL
Kd (HLA-A*02:01 [1]; [33]): 3.25 nM | Kd (HLA-A*02:17; [33]): 1.76 nM

Sequence: RVHSFFIQY
Kd (HLA-A*03:01 [2]; [34]): 68.1 nM | Kd (HLA-A*11:01 [3]; [34]): ≤ 1 nM | Kd (HLA-A*31:01 [4]; [34]): 161 nM

Sequence: SSFQDILLR
Kd (HLA-A*03:01 [2]; source organism: Influenza A virus (A/Memphis/14/1998(H3N2))): ≥ 20000 nM | Kd (HLA-A*31:01 [4]; source organism: Influenza A virus (A/X-31(H3N2))): 309 nM

Kd (HLA-A*11:01 [8]; source organism: Homo sapiens): 554 nM
Sequence: SSSPQPKKK

Sequence: TELRTFSIL
IC50 (HLA-A*02:01 [19]): ≥ 395000 nM | IC50 (HLA-A*24:02; [24]): 8430 nM | IC50 (HLA-B*07:02; [24]): 50300 nM

Kd (HLA-A*23:01; source organism: Escherichia coli F11): 66.2 nM
Sequence: TFYAEFPKK

Sequence: TLGMCCIITA
Kd (HLA-A*02:01 [1]; [21]): 67.4 nM | Kd (HLA-A*02:17; [21]): 16900 nM

Kd (HLA-A*03:01 [13]): 2840 nM | Kd (HLA-A*31:01 [4]; [25]): 55.7 nM
Sequence: TVKRYLQAK

Sequence: WYMRALYQK
Kd (HLA-A*23:01; source organism: Entamoeba histolytica HM-1:IMSS): 388 nM

Sequence: YARLRKEVL
Kd (HLA-B*08:02; [34]): 350 nM | Kd (HLA-A*02:01 [18]; [34]): ≥ 20000 nM

Sequence: YQLWTALISL
Kd (HLA-A*02:01 [1]; [35]): 18.8 nM | Kd (HLA-A*02:06; [35]): 1.75 nM | Kd (HLA-A*02:17; [35]): 104 nM | Kd (HLA-B*08:01; [35]): 1320 nM | Kd (HLA-B*15:01 [20]): 5.62 nM
